We go through 19 molecules from patent US20130078247A1 (Boehringer Ingelheim, published 2013).

Assay [1] addresses T1, recombinant human DLL4 extracellular domain, C-terminally His-tagged (R&D Systems) (human, UniProt Q9NR61 25-522, biotinylated in the competition assays (sites not given)).
T1 construct: also called rhDLL4; hDLL4; not shown: C-terminal His tag
As to the kind of experiment: periplasmic extract; hDLL4 ELISA. (An ELISA detects its analyte on a solid surface through an enzyme-linked reagent.)

In assay [2] the target is T1, recombinant human DLL4 extracellular …. As to the kind of experiment: periplasmic extract; hDLL4/hNotch1 AlphaScreen. The procedure:
To this mixture, the acceptor beads and the streptavidin donor beads are added and further incubated for 1 hour at room temperature. Fluorescence is measured by reading plates on the Envision Multilabel Plate reader (Perkin Elmer, Waltham, Mass., USA) using an excitation wavelength of 680 nm and an emission wavelength of 520 nm.
A general note: In Alpha technology, singlet oxygen from a donor bead excites a nearby acceptor bead.

Assay [3] addresses T2, recombinant human DLL4 (human, UniProt Q9NR61 25-522). As to the kind of experiment: cell-based or functional assay.
The target in assay [4] is T3, recombinant human Jagged-1 (Alexis) (human, UniProt P78504 34-1067, limits assumed).
T3 construct: also called hJagged-1; hJAG1
As to the kind of experiment: rhDLL1/rhJAG1 binding ELISA.

The target in assay [5] is T4, recombinant human DLL1 (Alexis) (human, UniProt O00548 18-545, limits assumed).
T4 construct: also called hDLL1; rhDLL1
T4 sequence (looked up): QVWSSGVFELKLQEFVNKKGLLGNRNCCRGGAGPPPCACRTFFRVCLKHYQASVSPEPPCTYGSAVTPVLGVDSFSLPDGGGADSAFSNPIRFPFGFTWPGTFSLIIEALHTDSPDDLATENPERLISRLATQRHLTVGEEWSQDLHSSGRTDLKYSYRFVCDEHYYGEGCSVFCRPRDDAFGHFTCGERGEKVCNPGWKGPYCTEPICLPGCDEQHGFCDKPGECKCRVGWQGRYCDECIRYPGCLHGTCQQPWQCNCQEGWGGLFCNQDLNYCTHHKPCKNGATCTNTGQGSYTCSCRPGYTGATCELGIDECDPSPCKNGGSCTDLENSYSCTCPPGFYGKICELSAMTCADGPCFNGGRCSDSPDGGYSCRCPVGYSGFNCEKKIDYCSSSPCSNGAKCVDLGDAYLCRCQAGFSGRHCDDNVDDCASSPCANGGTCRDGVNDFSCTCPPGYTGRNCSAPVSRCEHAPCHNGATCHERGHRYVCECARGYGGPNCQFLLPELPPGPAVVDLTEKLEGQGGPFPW
As to the kind of experiment: rhDLL1/rhJAG1 binding ELISA.

The target of a further assay is T5, human DLL1 (human, UniProt O00548 18-545, limits assumed).
T5 construct: also called hDLL1; rhDLL1
T5 sequence (looked up): T4 sequence (looked up)
As to the kind of experiment: binding ELISA, coated hDLL1. The procedure: (§1) Absence of binding to homologous ligands human DLL1 and human Jagged-1 is assessed via solid phase binding assay (ELISA). In brief, human DLL1 (Alexis, San Diego, Calif., USA) and human Jagged-1 (Alexis, San Diego, Calif., USA) are coated overnight at 4° C. at 1 μg/mL in a 96-well MaxiSorp plate (Nunc, Wiesbaden, Germany). Wells are blocked with a casein solution (1% in PBS). VHHs are applied as dilution series and binding is detected using a mouse anti-myc (Roche) and an anti-mouse-AP conjugate (Sigma, St. Louis, Mo., USA).

The next assay deals with T6, human Jagged-1 (human, UniProt P78504 34-1067, limits assumed).
T6 construct: also called hJag-1; hJAG1
As to the kind of experiment: binding ELISA, coated hJagged-1. The method, then:
as §1

Assay [6] has as its target T2, recombinant human DLL4. As to the kind of experiment: ProteOn off-rate screen, periplasmic extract, hDLL4 on chip. The procedure: (§2) In a first cycle, amino acid substitutions are introduced randomly in both framework (FW) and complementary determining regions (CDR) using the error-prone PCR method. […] After a polish step, PCR products are inserted via unique restriction sites into a vector designed to facilitate phage display of the VHH library. […] No selections on murine DLL4 are included as (conservation of) cross-reactivity is assessed at the screening level. Individual mutants are produced as recombinant protein using an expression vector derived from pUC119, which contains the LacZ promoter, a resistance gene for ampicillin, a multiple cloning site and an ompA leader sequence (pAX50). E. coli TG1 cells are transformed with the expression vector library and plated on agar plates (LB+Amp+2% glucose). Single colonies are picked from the agar plates and grown in 1 mL 96-deep-well plates. VHH expression is induced by adding IPTG (1 mM). Periplasmic extracts (in a volume of ˜80 uL) are prepared according to standard methods and screened for binding to recombinant human and mouse DII4 in a ProteOn (BioRad, Hercules, Calif., USA) off-rate assay. […] Periplasmic extract of affinity matured clones is diluted 1/10 and injected across the “analyte channels” A1-A6. An average off-rate is calculated of the wild type clones present in the plate and served as a reference to calculate off-rate improvements.

A further assay addresses T7, recombinant mouse DLL4 (mouse, UniProt Q9JI71 27-532).
T7 construct: extracellular domain; also called rmDLL4; mDLL4; not shown: C-terminal His tag
As to the kind of experiment: ProteOn off-rate screen, periplasmic extract, mDLL4 on chip. The method, then:
as §2

Residue numbers refer to the chain shown, from its start.

T7 sequence (Q9JI71 27-532): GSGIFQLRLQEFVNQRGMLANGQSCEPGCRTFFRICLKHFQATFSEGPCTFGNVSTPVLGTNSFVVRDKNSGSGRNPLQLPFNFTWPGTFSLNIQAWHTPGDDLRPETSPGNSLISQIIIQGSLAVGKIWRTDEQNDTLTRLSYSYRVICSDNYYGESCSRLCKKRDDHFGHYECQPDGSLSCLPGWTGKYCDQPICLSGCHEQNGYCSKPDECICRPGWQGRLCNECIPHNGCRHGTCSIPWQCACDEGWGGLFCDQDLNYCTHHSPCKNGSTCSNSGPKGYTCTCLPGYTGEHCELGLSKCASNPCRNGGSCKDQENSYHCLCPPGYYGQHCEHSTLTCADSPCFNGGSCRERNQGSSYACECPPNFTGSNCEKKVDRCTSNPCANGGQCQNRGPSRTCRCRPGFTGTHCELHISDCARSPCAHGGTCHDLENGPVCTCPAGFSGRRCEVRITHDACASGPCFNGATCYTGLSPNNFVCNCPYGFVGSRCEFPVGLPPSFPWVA
T1 sequence (Q9NR61 25-522): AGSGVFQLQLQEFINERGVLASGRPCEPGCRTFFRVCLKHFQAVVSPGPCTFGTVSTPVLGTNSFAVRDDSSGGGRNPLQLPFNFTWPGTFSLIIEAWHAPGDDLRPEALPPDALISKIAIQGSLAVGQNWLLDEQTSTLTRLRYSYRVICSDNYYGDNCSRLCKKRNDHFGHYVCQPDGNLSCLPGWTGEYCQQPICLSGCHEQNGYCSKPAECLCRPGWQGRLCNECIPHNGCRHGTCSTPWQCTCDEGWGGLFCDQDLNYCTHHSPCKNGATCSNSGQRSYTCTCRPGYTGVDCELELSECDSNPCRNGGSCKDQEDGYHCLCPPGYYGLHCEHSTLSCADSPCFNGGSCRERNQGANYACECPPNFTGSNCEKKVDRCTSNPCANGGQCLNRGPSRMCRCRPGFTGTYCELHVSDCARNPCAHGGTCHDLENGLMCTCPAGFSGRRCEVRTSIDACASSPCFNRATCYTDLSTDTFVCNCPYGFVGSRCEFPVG
T2 sequence (Q9NR61 25-522): as above

B1: DLLBII17B03 (VHH)
VHH: EVQLVESGGGLVQPGGSLRLSCAASGFTFENYALGWFRQAPGKEREWVSCISSSDGTTYYADSVKGRFTISRDNVKNTVYLQMNRLKPEDTAIYYCALSLGSSWCAYDYWGQGTQVTVSS
notes: also called DLLBII17B3; not shown: C-terminal c-myc and His6 tags
As a reminder, the % inhibition is the relative decrease from the control value, in per cent. For the molecule B1, the entries for the “% inhibition” value in assay [1] and in assay [2] were 76% and 77%, respectively.

B2: DLLBII33C05 (VHH)
VHH: EVQLVESGGGLVQAGGSLRLSCAASGFTLDNYVIGWFRQAPGKEREEVSCISSSGGSTDYLDSVKGRFTISRDNAKNTVYLQMNSLKPEDTAVYYCAADSLPCYYDKMVYDYWGQGTQVTVSS
notes: also called DLLBII33C5; not shown: C-terminal c-myc and His6 tags
B2: the “% inhibition” value in [1] stood at 86%; in assay [2] it was 75%.

B3: DLLBII19F04 (VHH)
VHH: EVQLVESGGGLVQAEGSLRLSCAASGSTFSTYAMAWYRQAPGKQRELVAGISFDGSTHYAESVKGRFTISRDDAKNTVSLQMNSLKPEDAAVYYCYSVHPSTGFGSWGQGTQVTVSS
notes: also called DLLBII19F4; not shown: C-terminal c-myc and His6 tags
As to B3, the “% inhibition” value was determined as 98% in [1] and 95% in assay [2].

B4: DLLBII19F12 (VHH)
VHH: EVQLVESGGGLVQAGGSLRLSCTASGSTFTSYAMGWYRQAPGKQRELVAAISSDDSTYYADCVKGRFTISRDNAKNTVYLQMNSLKPEDTAVYYCNAPHSDYDEEAPSDFGSWGQGTQVTVSS
notes: not shown: C-terminal c-myc and His6 tags
In the case of B4, the “% inhibition” value in assay [1] and in assay [2] was 98% each time.

B5: DLLBII56A09 (VHH, not shown: small tags and cut ends)
VHH: EVQLVESGGGLVQPGGSLRLSCAASGFTFDDYAIGWFRQAPGKEPEGISCISSSGGITYYADSVKGRFTTSRDNAKNTVYLQMNSLKPEDTAVYYCATPGIAACRGIHYTGQGTQVTVSS
B5: in the assay with recombinant human DLL4 [3], the “IC50 (nM) in the DLL4 proliferation assay (HUVEC, experiment 1)” value (from here on “IC50 (nM) … (HUVEC, experiment 1)”) is 11 nM and the “IC50 (nM) in the DLL4 proliferation assay (HUVEC, experiment 2)” value was 6.8 nM.

B6: DLLBII129D08 (VHH)
VHH: EVQLVESGGGLVQAGGSLRLSCAASGRTFSSYAMAWYRQAPGKEREYVAAIRWSGGTAYYADSVQGRFTISRDNAKNTVYLQMNSLKPEDTAVYYCANRAPDTRLEPYLYDYWGQGTQVTVSS
notes: as for B4
As to B6, the binding result in assay [4] and in assay [5] was “no binding” throughout.

B7: DLLBII129D08 (VHH)
VHH: B6 VHH
notes: not shown: C-terminal c-myc tag and (His)6 tag
Take B7: the binding result with human DLL1 and with human Jagged-1 was “no binding” throughout. The results for the “fold (off-rate improvement over DLLBII101G08)” value (from here on “fold”) with recombinant human DLL4 [6] and in the assay with recombinant mouse DLL4 were 38 fold and 35 fold, respectively.

B8: DLLBII101G08 (VHH)
VHH: B6 VHH with Y37F, Y47F, P101A, E106G, L109E
notes: also called 101G8; DLLBII101G8; not shown: C-terminal c-myc tag and His6 tag
Regarding B8, the “IC50 (nM) … (HUVEC, experiment 1)” value in the assay with recombinant human DLL4 [3] stood at 401 nM. Also, the “IC50 (nM) in the DLL4 proliferation assay (HUVEC, experiment 2)” value with recombinant human DLL4 [3] was found to be 112 nM. Besides, the binding result with human DLL1 and with human Jagged-1 was “no binding” each time. Moreover, the “fold” value with recombinant human DLL4 [6] and in the assay with recombinant mouse DLL4 was 1 fold throughout.

B9: DLLBII129E11 (VHH)
VHH: B6 VHH with E106R
notes: as for B4
Take B9: the binding result in [4] and in assay [5] was “no binding” in each case.

B10: DLLBII129B05 (VHH)
VHH: B6 VHH with E106A, L109E, Y112H
notes: as for B4
For the molecule B10, the binding result in assay [4] and in [5] was “no binding” throughout.

B11: DLLBII129B05 (VHH)
VHH: B6 VHH with E106A, L109E, Y112H
notes: as for B7
Take B11: the binding result in the assay with human DLL1 and with human Jagged-1 was “no binding” each time. Also, the results for the “fold” value with recombinant human DLL4 [6] and with recombinant mouse DLL4 were 24 fold and 20 fold, respectively.

B12: DLLBII129E11 (VHH)
VHH: B6 VHH with E106R
notes: as for B7
Consider B12, for which the binding result in the assay with human DLL1 and with human Jagged-1 was “no binding” in each case. For the same molecule, the “fold” value in the assay with recombinant human DLL4 [6] was 28 fold; with recombinant mouse DLL4 it was 26 fold.

B13: DLLBII28B06 (VHH)
VHH: EVQLVESGGGLVQAGGSLRLSCAASGSTFSTYAMGWYRQDPGNQRELVAAISSDGSTHYADSVKGRFTISRDNAKNTVYLQMNSLKPEDTAVYYCYAPVKVAGLEYDYWGQGTQVTVSS
notes: also called DLLBII28B6; not shown: C-terminal c-myc and His6 tags
On to B13, for which the “% inhibition” value in assay [1] is 23%; in [2], 54%.

B14: DLLBII115A05 (VHH)
VHH: EVQLVESGGGLVQPGGSLRLSCAASGFTFGSYDMSWVRRSPGKGPEWVSSINSGGGSTYYADFVKGRFTISRDNAKNTLYLQMNSLKPEDTAVYYCAADRYIRARQGDYWGAYEYDYWGQGTQVTVSS
notes: also called 115A5; DLLBII115A5; not shown: C-terminal c-myc tag and His6 tag
Regarding B14, in the assay with recombinant human DLL4 [3], the “IC50 (nM) … (HUVEC, experiment 1)” value is 10000 nM. In addition, the binding result in the assay with human DLL1 and with human Jagged-1 was “no binding” in each case.

B15: DLLBII133A09 (VHH)
VHH: B14 VHH with S50A, F63Y, R103W, D108E, E114A
notes: as for B7
Turning to B15, the binding result with human DLL1 and with human Jagged-1 was “no binding” in each case.

B16: DLLBII015 (VHH)
VHH: B14 VHH with F29I, S50A, F63Y, R103W, D108E, E114A
notes: as for B7
As to B16, the binding result in the assay with human DLL1 and with human Jagged-1 was “no binding” each time.

B17: DLLBII136C07 (VHH)
VHH: B14 VHH with F63Y, R103W, D108E
notes: as for B7
In the case of B17, the binding result in the assay with human DLL1 and in the assay with human Jagged-1 was “no binding” each time.

B18: DLLBII133G05 (VHH)
VHH: B14 VHH with S50A, A61T, F63Y, R103W, D108E, E114A
notes: as for B7
Take B18: the binding result in the assay with human DLL1 and with human Jagged-1 was “no binding” in each case.

B19: DLLBII015 (VHH)
VHH: B14 VHH with F29I, S50A, F63Y, R103W, D108E, E114A
notes: as for B4
Take B19: the binding result in assay [4] and in [5] was “no binding” throughout.
